Laboratory results published in IntAct's records for PubMed 17525332.

B1: DNA replication complex GINS protein PSF2 (Homo sapiens), Q9Y248 (parent)
chain: MDAAEVEFLAEKELVTIIPNFSLDKIYLIGGDLGPFNPGLPVEVPLWLAINLKQRQKCRLLPPEWMDVEKLEKMRDHERKEETFTPMPSPYYMELTKLLLNHASDNIPKADEIRTLVKDMWDTRIAKLRVSADSFVRQQEAHAKLDNLTLMEINTSGTFLTQALNHMYKLRTNLQPLESTQSQDF
B2: Zinc finger CCHC domain-containing protein 8 (Homo sapiens), Q6NZY4 (parent)
chain: MAAEVYFGDLELFEPFDHPEESIPKPVHTRFKDDDGDEEDENGVGDAELRERLRQCEETIEQLRAENQELKRKLNILTRPSGILVNDTKLDGPILQILFMNNAISKQYHQEIEEFVSNLVKRFEEQQKNDVEKTSFNLLPQPSSIVLEEDHKVEESCAIKNNKEAFSVVGSVLYFTNFCLDKLGQPLLNENPQLSEGWEIPKYHQVFSHIVSLEGQEIQVKAKRPKPHCFNCGSEEHQMKDCPMPRNAARISEKRKEYMDACGEANNQNFQQRYHAEEVEERFGRFKPGVISEELQDALGVTDKSLPPFIYRMRQLGYPPGWLKEAELENSGLALYDGKDGTDGETEVGEIQQNKSVTYDLSKLVNYPGFNISTPRGIPDEWRIFGSIPMQACQQKDVFANYLTSNFQAPGVKSGNKRSSSHSSPGSPKKQKNESNSAGSPADMELDSDMEVPHGSQSSESFQFQPPLPPDTPPLPRGTPPPVFTPPLPKGTPPLTPSDSPQTRTASGAVDEDALTLEELEEQQRRIWAALEQAESVNSDSDVPVDTPLTGNSVASSPCPNELDLPVPEGKTSEKQTLDEPEVPEIFTKKSEAGHASSPDSEVTSLCQKEKAELAPVNTEGALLDNGSVVPNCDISNGGSQKLFPADTSPSTATKIHSPIPDMSKFATGITPFEFENMAESTGMYLRIRSLLKNSPRNQQKNKKASE
B3: Origin recognition complex subunit 3 (Homo sapiens), Q9UBD5 (parent)
chain: MATSSMSKGCFVFKPNSKKRKISLPIEDYFNKGKNEPEDSKLRFETYQLIWQQMKSENERLQEELNKNLFDNLIEFLQKSHSGFQKNSRDLGGQIKLREIPTAALVLGVNVTDHDLTFGSLTEALQNNVTPYVVSLQAKDCPDMKHFLQKLISQLMDCCVDIKSKEEESVHVTQRKTHYSMDSLSSWYMTVTQKTDPKMLSKKRTTSSQWQSPPVVVILKDMESFATKVLQDFIIISSQHLHEFPLILIFGIATSPIIIHRLLPHAVSSLLCIELFQSLSCKEHLTTVLDKLLLTTQFPFKINEKVLQVLTNIFLYHDFSVQNFIKGLQLSLLEHFYSQPLSVLCCNLPEAKRRINFLSNNQCENIRRLPSFRRYVEKQASEKQVALLTNERYLKEETQLLLENLHVYHMNYFLVLRCLHKFTSSLPKYPLGRQIRELYCTCLEKNIWDSEEYASVLQLLRMLAKDELMTILEKCFKVFKSYCENHLGSTAKRIEEFLAQFQSLDETKEEEDASGSQPKGLQKTDLYHLQKSLLEMKELRRSKKQTKFEVLRENVVNFIDCLVREYLLPPETQPLHEVVYFSAAHALREHLNAAPRIALHTALNNPYYYLKNEALKSEEGCIPNIAPDICIAYKLHLECSRLINLVDWSEAFATVVTAAEKMDANSATSEEMNEIIHARFIRAVSELELLGFIKPTKQKTDHVARLTWGGC

Variants of: B1
Details: with chk2_human CHEK2, O96017
Sequence of chk2_human CHEK2, O96017 (O96017 whole entry): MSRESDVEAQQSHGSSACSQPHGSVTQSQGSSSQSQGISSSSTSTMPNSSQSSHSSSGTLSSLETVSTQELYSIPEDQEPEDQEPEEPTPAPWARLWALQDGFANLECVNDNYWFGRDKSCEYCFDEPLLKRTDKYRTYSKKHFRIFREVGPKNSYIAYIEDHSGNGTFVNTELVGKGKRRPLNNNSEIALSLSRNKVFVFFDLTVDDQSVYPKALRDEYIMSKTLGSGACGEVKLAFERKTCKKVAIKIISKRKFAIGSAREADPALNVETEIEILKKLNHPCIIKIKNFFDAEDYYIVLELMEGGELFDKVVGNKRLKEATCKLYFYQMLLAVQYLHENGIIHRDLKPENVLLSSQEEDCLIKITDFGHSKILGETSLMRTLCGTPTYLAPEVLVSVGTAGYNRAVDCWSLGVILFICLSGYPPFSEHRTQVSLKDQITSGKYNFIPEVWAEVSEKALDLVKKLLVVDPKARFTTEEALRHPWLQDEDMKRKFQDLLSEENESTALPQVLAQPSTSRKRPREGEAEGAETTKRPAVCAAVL

| Variant | effect of a mutation on the interaction |
| --- | --- |
| MDAAEVEFLAEKELVTIIPNFSLDKIYLIGGDLGPFNPGLPVEVPLWLAINLKQRQKCRLLPPEWMDVEKLEKMRDHERKEETFTPMPSPYYMELTKLLLNHASDNIPKADEIRTLVKDMWDTRIAKLRVSADSFVRQQEAHAKLDNLTLMEINTSGTFLTQALNHMYKLRTNLQPLESAQAQDF | disrupting interaction |

Variants of: B2
Details: with brca1_human BRCA1, P38398
Target sequence in this assay (P38398 whole entry, looked up): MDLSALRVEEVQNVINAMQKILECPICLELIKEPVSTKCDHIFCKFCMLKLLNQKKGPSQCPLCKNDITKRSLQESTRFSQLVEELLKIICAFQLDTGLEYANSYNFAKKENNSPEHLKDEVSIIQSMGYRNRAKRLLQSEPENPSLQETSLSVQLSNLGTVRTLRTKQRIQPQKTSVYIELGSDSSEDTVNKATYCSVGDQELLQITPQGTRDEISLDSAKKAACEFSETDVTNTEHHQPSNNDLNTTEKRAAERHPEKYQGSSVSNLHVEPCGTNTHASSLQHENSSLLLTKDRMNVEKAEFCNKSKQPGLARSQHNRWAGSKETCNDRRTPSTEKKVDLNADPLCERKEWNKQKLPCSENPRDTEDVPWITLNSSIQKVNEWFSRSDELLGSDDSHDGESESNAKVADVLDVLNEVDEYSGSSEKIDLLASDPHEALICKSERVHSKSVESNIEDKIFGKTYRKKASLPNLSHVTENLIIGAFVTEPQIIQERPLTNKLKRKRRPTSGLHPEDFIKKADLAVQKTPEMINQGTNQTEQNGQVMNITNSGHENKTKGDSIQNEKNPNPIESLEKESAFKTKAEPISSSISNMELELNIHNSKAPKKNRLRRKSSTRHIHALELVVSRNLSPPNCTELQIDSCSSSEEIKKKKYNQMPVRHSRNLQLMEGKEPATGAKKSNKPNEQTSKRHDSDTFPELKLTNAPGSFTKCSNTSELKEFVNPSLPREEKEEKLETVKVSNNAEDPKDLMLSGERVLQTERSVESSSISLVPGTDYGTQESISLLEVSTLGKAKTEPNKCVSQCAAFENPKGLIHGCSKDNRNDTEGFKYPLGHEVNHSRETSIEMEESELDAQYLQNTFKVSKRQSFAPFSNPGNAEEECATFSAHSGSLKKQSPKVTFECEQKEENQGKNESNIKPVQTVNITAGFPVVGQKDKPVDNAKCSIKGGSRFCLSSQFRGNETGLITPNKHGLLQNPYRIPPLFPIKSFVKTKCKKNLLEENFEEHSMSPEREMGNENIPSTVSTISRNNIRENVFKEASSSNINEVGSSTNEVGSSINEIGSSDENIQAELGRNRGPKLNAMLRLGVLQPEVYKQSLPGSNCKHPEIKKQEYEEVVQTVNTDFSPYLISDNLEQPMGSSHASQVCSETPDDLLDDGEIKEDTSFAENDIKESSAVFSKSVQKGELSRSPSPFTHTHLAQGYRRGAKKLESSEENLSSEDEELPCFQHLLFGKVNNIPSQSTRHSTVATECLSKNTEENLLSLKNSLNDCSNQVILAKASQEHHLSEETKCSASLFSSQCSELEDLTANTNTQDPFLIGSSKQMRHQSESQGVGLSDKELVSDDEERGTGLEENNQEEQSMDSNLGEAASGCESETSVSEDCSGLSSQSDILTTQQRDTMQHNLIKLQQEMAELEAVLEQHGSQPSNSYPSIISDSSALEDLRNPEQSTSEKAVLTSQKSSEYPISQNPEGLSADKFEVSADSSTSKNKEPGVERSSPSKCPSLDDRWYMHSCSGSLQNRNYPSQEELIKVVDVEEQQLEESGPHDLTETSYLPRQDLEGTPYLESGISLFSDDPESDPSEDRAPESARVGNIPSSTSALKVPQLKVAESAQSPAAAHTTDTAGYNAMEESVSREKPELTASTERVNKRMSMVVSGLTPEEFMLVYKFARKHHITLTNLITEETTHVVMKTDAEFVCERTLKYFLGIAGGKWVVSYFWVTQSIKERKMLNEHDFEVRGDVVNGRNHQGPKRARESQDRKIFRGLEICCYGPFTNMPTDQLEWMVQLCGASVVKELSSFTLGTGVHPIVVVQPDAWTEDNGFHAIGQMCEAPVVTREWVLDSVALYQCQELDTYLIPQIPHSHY

| Variant | effect of a mutation on the interaction |
| --- | --- |
| S456A | disrupting interaction |

Variants of: B3
Details: with brca1_human BRCA1, P38398
Target sequence in this assay (P38398 whole entry, looked up): as above

| Variant | effect of a mutation on the interaction |
| --- | --- |
| S516A | disrupting interaction |
